Values joined by “and” are separate entries in the source; they are usually repeats but may differ in a detail not shown here. Equal values may be shown once.

Data set [1] addresses E. coli fatty acid synthase apo-acyl carrier protein (apo-ACP) (UniProt P0A6A8).
Data set [2] deals with T1, His6-SrfB1 (N-terminal hexa-histidine-tagged SrfB1 valine-activating domain of surfactin synthetase) (UniProt Q04747).
T1 sequence: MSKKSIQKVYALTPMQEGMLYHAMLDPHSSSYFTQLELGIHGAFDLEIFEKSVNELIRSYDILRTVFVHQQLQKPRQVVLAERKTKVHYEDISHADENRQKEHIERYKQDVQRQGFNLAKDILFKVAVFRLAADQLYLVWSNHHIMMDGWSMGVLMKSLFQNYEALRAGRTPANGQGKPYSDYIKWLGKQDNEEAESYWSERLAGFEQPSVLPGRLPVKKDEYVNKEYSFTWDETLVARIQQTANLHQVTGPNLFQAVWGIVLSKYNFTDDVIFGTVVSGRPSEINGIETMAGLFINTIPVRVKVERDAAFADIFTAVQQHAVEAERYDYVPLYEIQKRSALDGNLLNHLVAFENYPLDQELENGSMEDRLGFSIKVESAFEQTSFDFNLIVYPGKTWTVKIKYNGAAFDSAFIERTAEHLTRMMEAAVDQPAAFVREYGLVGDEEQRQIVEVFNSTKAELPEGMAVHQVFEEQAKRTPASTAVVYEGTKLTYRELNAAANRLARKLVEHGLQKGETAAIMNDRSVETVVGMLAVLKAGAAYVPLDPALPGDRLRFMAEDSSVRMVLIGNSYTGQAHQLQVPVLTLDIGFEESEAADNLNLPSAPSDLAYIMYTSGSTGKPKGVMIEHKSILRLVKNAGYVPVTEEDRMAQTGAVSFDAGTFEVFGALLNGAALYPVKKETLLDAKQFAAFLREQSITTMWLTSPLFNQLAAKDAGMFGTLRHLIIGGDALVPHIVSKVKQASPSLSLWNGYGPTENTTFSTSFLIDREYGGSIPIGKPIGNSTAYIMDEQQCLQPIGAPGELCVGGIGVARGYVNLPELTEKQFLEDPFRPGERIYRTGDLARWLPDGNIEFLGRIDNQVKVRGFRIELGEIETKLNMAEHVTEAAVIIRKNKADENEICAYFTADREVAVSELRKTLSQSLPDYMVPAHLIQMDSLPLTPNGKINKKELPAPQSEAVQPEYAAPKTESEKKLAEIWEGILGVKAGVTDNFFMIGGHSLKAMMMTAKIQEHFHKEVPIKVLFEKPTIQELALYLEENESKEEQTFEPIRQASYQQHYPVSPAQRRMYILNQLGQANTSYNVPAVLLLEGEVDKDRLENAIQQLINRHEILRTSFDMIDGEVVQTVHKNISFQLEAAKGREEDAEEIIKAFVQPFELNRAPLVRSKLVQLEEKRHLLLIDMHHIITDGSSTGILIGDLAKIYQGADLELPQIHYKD

In data set [3] the test system is His6-peptidyl carrier protein (PCP domain of TycA, hexa-histidine tagged).
The target in data set [4] is EntF (E. coli enterobactin synthetase component), apo form (UniProt P11454).
Sequence of EntF (E. coli enterobactin synthetase component), apo form (P11454 whole entry): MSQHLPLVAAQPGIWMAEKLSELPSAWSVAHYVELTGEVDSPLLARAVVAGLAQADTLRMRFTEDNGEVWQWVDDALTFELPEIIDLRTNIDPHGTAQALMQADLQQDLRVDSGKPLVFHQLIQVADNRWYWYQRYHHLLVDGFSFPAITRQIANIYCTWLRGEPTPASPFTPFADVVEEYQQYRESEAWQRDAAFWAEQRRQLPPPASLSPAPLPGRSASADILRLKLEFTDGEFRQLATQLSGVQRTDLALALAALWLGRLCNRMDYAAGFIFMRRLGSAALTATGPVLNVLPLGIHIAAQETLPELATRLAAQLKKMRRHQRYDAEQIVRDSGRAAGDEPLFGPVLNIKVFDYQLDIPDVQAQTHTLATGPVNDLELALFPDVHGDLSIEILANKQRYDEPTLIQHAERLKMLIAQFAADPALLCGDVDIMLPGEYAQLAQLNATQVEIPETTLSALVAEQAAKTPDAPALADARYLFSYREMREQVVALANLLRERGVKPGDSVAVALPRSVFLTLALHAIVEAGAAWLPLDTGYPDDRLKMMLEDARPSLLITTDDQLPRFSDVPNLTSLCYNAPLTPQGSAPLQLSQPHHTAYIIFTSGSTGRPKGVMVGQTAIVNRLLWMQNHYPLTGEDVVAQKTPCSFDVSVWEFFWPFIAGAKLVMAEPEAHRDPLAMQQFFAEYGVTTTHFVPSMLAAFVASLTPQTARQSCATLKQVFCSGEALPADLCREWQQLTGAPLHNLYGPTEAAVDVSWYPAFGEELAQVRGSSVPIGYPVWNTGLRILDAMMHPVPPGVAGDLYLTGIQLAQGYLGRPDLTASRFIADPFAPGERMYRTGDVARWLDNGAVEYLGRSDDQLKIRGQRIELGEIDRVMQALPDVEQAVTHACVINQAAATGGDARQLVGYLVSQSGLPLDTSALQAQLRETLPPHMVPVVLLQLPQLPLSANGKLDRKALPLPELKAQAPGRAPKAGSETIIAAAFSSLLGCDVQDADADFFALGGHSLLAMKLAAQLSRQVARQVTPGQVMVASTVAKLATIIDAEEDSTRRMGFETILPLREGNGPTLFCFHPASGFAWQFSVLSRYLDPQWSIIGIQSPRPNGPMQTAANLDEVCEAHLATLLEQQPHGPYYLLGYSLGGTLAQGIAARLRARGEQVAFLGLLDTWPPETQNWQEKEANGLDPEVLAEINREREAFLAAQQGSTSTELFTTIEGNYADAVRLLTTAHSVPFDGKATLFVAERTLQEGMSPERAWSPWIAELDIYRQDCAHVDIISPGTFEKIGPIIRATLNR
The test system of data set [5] is Lactobacillus casei D-Alanyl carrier protein (apo-Dcp).
Data set [6] deals with Rhizobial NodF (wild-type).
For data set [7], the system named is Streptomycete ACP involved in frenolicin polyketide antibiotic biosynthesis (apo-form).
Data set [8] concerns Streptomycete ACP involved in granaticin polyketide antibiotic biosynthesis (apo-form).
The subject of data set [9] is Streptomycete ACP involved in oxytetracycline polyketide antibiotic biosynthesis (apo-form).
Data set [10] deals with Streptomycete ACP involved in tetracenomycin polyketide antibiotic biosynthesis (apo-form).
In data set [11] the target is His6-SrfB1 (N-terminal hexa-histidine-tagged SrfB1 valine-activating domain of surfactin synthetase) (Bacillus) (UniProt Q04747). The data set is described as follows: cell-based or functional assay.

Sequence of E. coli fatty acid synthase apo-acyl carrier protein (apo-ACP) (P0A6A8 2-78): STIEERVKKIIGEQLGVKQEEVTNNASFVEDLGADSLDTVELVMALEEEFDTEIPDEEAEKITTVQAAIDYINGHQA

Take “Sfp (B. subtilis phosphopantetheinyl transferase)”: the phosphopantetheinylation entry in [1] and in data set [3] was “Sfp efficiently catalyzes modification of all three substrates” throughout. Further, the “incorporation of [3H]-4'-Ppant” value in data set [2] is “Sfp is capable of phosphopantetheinylating an SfrB1 fragment”. In data set [3], the “[3H]-4'-Ppant incorporated versus substrate concentration” value is listed as “Sfp is capable of phosphopantetheinylating a substrate, such as PCP, in a wide range of concentrations”.
“Escherichia coli holo-acyl carrier protein synthase (ACPS)”: the “[3H]phosphopantetheine incorporated (+ ACPS)” value with ACP-NodF chimera was 122 000 dpm. In addition, in [1], the “% conversion” value is listed as 46% conversion; the “Km value for apo-ACP” value was “we were able to assign an upper limit of ˜1 µM to the Km value for apo-ACP”; the “[3H]phosphopantetheine incorporated (+ ACPS)” value was 1 320 000 dpm; the apparent kcat result is “An apparent kcat value of about 10 min^-1 was measured at saturating CoA and 50 µM apo-ACP”. Moreover, in data set [1], the “radioactivity incorporated into the protein fraction (ACP + ACPS)” value was 2.13 × 10^6 (±.65%) and 2.20 × 10^6 (±.64%) and 2.21 × 10^6 (±.63%); the “time course of holo-ACP formation” value is “almost exclusive modification of apo-ACP by ACPS”. Also, the “time course of incorporation of radiolabel into EntF” value in data set [4] was “EntF undergoes almost no modification in the presence of 15-fold higher concentrations of ACPS and o195”. In data set [5], the “[^3H] holo-Dcp formed versus apo-Dcp” value was “the amount of holo-Dcp formed increases linearly with the amount of apo-Dcp in the reaction”; the “radioactivity incorporated into the protein fraction (Dcp + ACPS)” value was 0.98 × 10^6 (±0.95%) and 1.04 × 10^6 (±0.93%) and 1.00 × 10^6 (±0.77%). In [6], the “% conversion” value is 47% conversion and the “[3H]phosphopantetheine incorporated (+ ACPS)” value is reported as 236 000 dpm. Also, the phosphopantetheinylation entry in [7] is “E. coli ACPS modifies the apo-form of Streptomycete ACPs involved in frenolicin, granaticin, oxytetracycline, and tetracenomycin polyketide antibiotic biosynthesis”. Besides, the phosphopantetheinylation entry in [8] is “E. coli ACPS modifies the apo-form of Streptomycete ACPs involved in frenolicin, granaticin, oxytetracycline, and tetracenomycin polyketide antibiotic biosynthesis”. In addition, the phosphopantetheinylation entry in data set [9] is “E. coli ACPS modifies the apo-form of Streptomycete ACPs involved in frenolicin, granaticin, oxytetracycline, and tetracenomycin polyketide antibiotic biosynthesis”. Besides, the phosphopantetheinylation entry in data set [10] was “E. coli ACPS modifies the apo-form of Streptomycete ACPs involved in frenolicin, granaticin, oxytetracycline, and tetracenomycin polyketide antibiotic biosynthesis”.
For “EntD (E. coli), recombinant from pET28b-entD”, in data set [4], the “incorporation of [3H]-4'-Ppant” value is “EntD is capable of phosphopantetheinylating an EntF fragment” and the “time course of incorporation of radiolabel into EntF” value is listed as “EntF is modified effectively by EntD (100 nM)”.
“Sfp (B. subtilis phosphopantetheinyl transferase) (enzyme)”: the level of [^14C]-L-valine-holo-SrfB1 covalent complex formed in [11] worked out at 14 fold.
